This note sets out measurements from patent publication US20210017289A1 (AbbVie / Abbott, published 2021).

For assay [1], the target named is T1, mouse OX40 expressed on 293s cells (mouse, UniProt P47741 20-272).
T1 construct: also called murine OX40
T1 sequence: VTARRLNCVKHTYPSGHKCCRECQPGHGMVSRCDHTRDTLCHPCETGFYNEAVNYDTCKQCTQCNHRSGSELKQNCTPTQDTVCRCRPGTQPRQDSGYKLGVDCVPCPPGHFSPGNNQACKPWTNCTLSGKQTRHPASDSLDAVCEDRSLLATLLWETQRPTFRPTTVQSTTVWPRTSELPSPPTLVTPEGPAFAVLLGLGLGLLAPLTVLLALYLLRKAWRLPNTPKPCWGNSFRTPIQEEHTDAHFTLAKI
In words: flow cytometry on 293s-muOX40 cells. The procedure:
(§1) After plating cells, 50 μL of Hu3738 or isotype control antibody at 2 μg/mL were added to corresponding wells in duplicate for each cell line and allowed to incubate on ice for 30 minutes. Following incubation, 200 μL of Dulbecco's Phosphate Buffered Saline (DPBS) was added into each well and plates were spun down at 1000 rpm for three minutes. Supernatants from each well were removed and 50 μL of Cy5-Donkey anti-Human IgG (Jackson ImmunoResearch) secondary antibody was added at a 1:250 dilution, which was then incubated for 30 minutes on ice in the dark. Following the incubation period, 200 μL of DPBS was added prior to spinning down the plate at 1000 rpm for three minutes. Supernatants were removed and each well was re-suspended with 100 μL of DPBS+1% Formaldehyde. Samples were analyzed on the dual laser FACSCalibur flow cytometer (Becton Dickinson).
(In general: In flow cytometry, cells or beads pass a laser one at a time.)

Assay [2] concerns the target T2, human OX40 chimera with murine CRDII replacing human CRDII (human/mouse chimera, UniProt P43489 29-277).
T2 chain: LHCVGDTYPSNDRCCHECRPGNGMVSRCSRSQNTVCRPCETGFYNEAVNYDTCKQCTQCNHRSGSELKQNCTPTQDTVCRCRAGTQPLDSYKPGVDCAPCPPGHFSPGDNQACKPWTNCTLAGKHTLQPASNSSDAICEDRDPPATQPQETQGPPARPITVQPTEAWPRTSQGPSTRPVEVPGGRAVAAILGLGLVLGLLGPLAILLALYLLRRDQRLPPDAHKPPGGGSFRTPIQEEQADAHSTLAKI
In words: flow cytometry on 293s-huOX40-muCRDII cells. As for the experimental part:
as §1

Assay [3] concerns the target T3, rhesus OX40 expressed on 293 NF-κB reporter cells (rhesus macaque (Macaca mulatta), UniProt P43489 29-277 (human entry)).
T3 construct: also called cell-surface rhesus monkey OX40
T3 chain: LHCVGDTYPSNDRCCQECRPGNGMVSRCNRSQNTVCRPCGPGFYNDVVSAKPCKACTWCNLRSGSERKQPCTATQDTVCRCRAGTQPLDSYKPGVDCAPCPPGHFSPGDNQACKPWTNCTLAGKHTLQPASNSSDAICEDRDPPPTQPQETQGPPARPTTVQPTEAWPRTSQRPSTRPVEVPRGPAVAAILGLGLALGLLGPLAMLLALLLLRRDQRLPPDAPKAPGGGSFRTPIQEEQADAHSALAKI
In words: flow cytometry on NF-κB reporter cells expressing rhesus OX40. The procedure: Rhesus macaque (Macaca mulatta) OX40 is identical to cynomolgus monkey (Macaca fascicularis) OX40 (SEQ ID NO:2) at the amino acid level. […] For the binding assay, cells were resuspended at 5 million cells per mL. 50 μL (250,000 cells)/well were transferred to each well of a 500 μL polypropylene 96-well plate (Nunc). A 2× stock of test anti-OX40 antibody or isotype control monoclonal antibody was prepared in a separate dilution plate at 666, 333, 111, 37.03, 12.34, 4.11, 0.457, 0.152, 0.0508, 0.0169, 0.00564 nM in culture media. The monoclonal antibodies (50 μL/well) were transferred into respective wells of the assay plate. Cells were incubated with the primary antibodies for 30 minutes at 4° C. and washed twice with 250 μL/well of PBS by centrifuging at 800 rpm for 3 minutes. Bound antibody was detected with Cy5-Donkey anti-human IgG (H+L) (Jackson ImmunoResearch) diluted to 2 μg/mL (50 μL/well) in PBS for 30 minutes at 4° C. Cells were washed once with 250 μL/well of PBS, resuspended in PBS containing 1% Formaldehyde and analyzed on a dual laser FACSCalibur (Becton Dickinson).

For assay [4], the target named is T4, human OX40 expressed on cells (human, UniProt P43489 29-277).
T4 construct: also called cell-surface human OX40; Jurkat-NF-κB-huOX40
T4 sequence: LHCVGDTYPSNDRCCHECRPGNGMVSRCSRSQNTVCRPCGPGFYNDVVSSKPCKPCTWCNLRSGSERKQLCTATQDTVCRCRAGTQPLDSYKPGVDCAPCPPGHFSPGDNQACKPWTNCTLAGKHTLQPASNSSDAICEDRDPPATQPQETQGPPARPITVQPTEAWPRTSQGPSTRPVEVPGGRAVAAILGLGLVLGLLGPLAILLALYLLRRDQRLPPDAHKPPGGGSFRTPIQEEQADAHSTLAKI
The experiment in a line: flow cytometry on Jurkat NF-κB reporter cells expressing human OX40. The procedure: A Jurkat NF-κB reporter cell line expressing human OX40 protein was cultured in DMEM containing 10% FBS and penicillin/streptomycin (pen/strep). For the binding assay, each cell line was resuspended at 5 million cells per mL. 50 μL (250,000 cells)/well were transferred to each well of a 500 μL polypropylene 96-well plate (Nunc). A 2× stock of test anti-OX40 antibody or isotype control mAb was prepared in a separate dilution plate at 666, 333, 111, 37.03, 12.34, 4.11, 0.457, 0.152, 0.0508, 0.0169, 0.00564 nM in culture media. Each antibody (50 μL/well) was transferred into respective wells of the assay plate. Cells were incubated with the test anti-OX40 antibody or isotype control antibodies for 30 minutes at 4° C. and washed twice with 250 μL/well of PBS by centrifuging at 800 rpm for 3 minutes. Bound antibody was detected with Cy5-Donkey anti-human IgG (H+L) (Jackson ImmunoResearch) diluted to 2 μg/mL (50 μL/well) in PBS for 30 minutes at 4° C. Cells were washed once with 250 μL/well of PBS, resuspended in PBS containing 1% Formaldehyde and analyzed on a dual laser FACSCalibur (Becton Dickinson).

In a further assay the target is T5, 293s-huOX40-muCRDII+III.
T5 construct: cell-surface chimera, named on the sheet by its cell line; also called human OX40 chimera with murine CRDII and CRDIII replacing human CRDII and CRDIII
T5 receptor chain: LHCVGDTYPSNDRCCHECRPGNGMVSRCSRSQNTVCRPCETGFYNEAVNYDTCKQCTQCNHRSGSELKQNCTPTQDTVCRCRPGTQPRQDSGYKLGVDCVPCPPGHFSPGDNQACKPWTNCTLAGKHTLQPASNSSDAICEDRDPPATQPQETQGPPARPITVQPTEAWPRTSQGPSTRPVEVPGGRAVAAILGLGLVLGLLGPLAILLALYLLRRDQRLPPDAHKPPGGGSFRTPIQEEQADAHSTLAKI
The experiment in a line: flow cytometry on 293s transfectants, Hu3738 added at 2 µg/mL, Cy5 donkey anti-human IgG. The procedure:
as §1

B1: Hu3738 (antibody, V domains shown)
VH: EVQLVESGGGLVQPGGSLRLSCAASGFTFSRYGMSWVRQAPGKGLELVATINSNGGRTYYPDSVKGRFTISRDNAKNSLYLQMNSLRAEDTAVYYCAREGITTAYAMDYWGQGTTVTVSS
VL: DIVMTQSPDSLAVSLGERATINCKASQSVDYDGDSYMHWYQQKPGQPPKLLIYAASILESGVPDRFSGSGSGTDFTLTISSLQAEDVAVYYCQQSNEDPRTFGGGTKVEIKR
notes: Humanized antibody; also called exemplary anti-OX40 antibody Hu3738; Hu3738 VH.1b / Hu3738 VL.1
For orientation: EC50 means the concentration giving half of the maximal effect. As to B1, the binding result (in assay [1]; in assay [2]; with 293s-huOX40-muCRDII+III) was “no binding (tested: 2 µg/mL)” each time. Moreover, the values for the half-maximal effective concentration (EC50) in assay [3] and in assay [4] were 2.1 nM and 0.075 µg/mL, respectively.
